From US20250009876A1 (H LUNDBECK A S, published 2025) come the findings set out here.

For experiment [1], the target named is T1, PACAP27 (Pituitary Adenylate Cyclase-Activating Polypeptide, 27 amino acids) (human, the C-terminal leucine is amidated).
T1 construct: also called human PACAP27
T1 peptide: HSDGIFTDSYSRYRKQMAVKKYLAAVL
Kind of experiment: competition HTRF binding assay: unlabeled PACAP27 at 10x against biotinylated PACAP38 (35 nM). As to the method:
In parallel, 10 μl of an antibody dilution series (highest final concentration of 100 nM) were incubated with 10 μl of N-terminal or C-terminal biotinylated PACAP38 (35 nM final) alone, or in combination with either PACAP27 (350 nM final) or VIP (350 nM final), i.e., 10× PACAP27 or 10× VIP, respectively, in a HTRF plate. 20 μl of Eu³⁺ cryptate labeled anti-hu Fc donor and 20 μl of d2-labeled streptavidin acceptor were added to each well and incubated for 1 hour at room temperature. Fluorescence was measured at 620 and 665 nm with a delay of 300 usec.
In general terms: TR-FRET usually uses a lanthanide donor and a delayed reading to cut background.

Experiment [2] deals with T2, PAC1-R on PAC1-R-expressing PC-12 cells (UniProt P32215 20-523).
T2 construct: whole, on cells; also called PAC1 receptor
T2 sequence (looked up): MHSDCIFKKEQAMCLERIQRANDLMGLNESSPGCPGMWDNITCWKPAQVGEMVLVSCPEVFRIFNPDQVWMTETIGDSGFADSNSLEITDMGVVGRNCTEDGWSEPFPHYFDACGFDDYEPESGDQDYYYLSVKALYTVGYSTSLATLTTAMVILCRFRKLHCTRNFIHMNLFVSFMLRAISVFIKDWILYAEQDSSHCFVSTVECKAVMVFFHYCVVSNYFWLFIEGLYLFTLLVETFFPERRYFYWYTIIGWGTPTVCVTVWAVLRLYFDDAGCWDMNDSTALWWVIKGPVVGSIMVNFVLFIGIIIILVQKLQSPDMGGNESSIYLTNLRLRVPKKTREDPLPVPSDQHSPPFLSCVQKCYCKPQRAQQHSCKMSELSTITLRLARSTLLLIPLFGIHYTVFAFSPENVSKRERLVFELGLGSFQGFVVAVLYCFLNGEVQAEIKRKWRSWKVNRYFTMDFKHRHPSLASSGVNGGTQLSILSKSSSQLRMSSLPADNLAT
Put plainly: cell surface binding assay (DELFIA TRF): antibody pre-incubated with PACAP38, added to PAC1-R-expressing PC-12 cells, detected with Eu anti-human IgG. As to the method: Cells were initially seeded at 1×10⁵ cells/well in a solution of complete RPMI (“cRPMI”: RPMI medium supplemented with 10% sterile heat-inactivated FBS and 1% sterile antibiotic/antimycotic)+10% FBS, and the plates were allowed to incubate overnight at 37° C. On the day of the binding assay, antibodies at an initial concentration of 15 μg/ml were diluted at a 1:3 ratio in DELFIA® binding buffer (50 mM Tris, 150 mM NaCl, 0.1% azide, 2% horse serum) (Perkin-Elmer, Waltham, MA) to a total volume of 60 μL in a separate 96 well round bottom plate. PACAP38 was prepared for the binding assay by diluting it in DELFIA® binding buffer to a concentration of 200 nM, and then 60 μl of the diluted PACAP38 was added to each of the antibody-containing wells to form antibody: antigen complexes. Following addition of PACAP38, the antibody: antigen complexes were incubated at room temperature on a shaker for 1 hour. Separately, the PC-12 cells were prepared for addition of antibody: antigen complexes by washing the cells two times with DELFIA® wash buffer (50 mM Tris, 150 mM NaCl, 0.1% Azide) (Perkin-Elmer, Waltham, MA). After washing the cells two times and following the 1 hour room temperature incubation of the antibody: antigen complexes, 50 μl of the antibody: antigen complex was added to each well containing cells. The mixtures of cells and antibody: antigen complexes were then incubated for 30 minutes at room temperature. Following this 30 minute incubation, each mixture was washed two times with DELFIA® wash buffer (Perkin-Elmer, Waltham, MA).
DELFIA® Europium labeled anti-human IgG detection reagent (Cat #1244-330, Perkin-Elmer, Waltham, MA) was diluted to a concentration of 300 ng/ml in DELFIA® Binding Buffer. Following dilution, 50 μl of the anti-human IgG detection reagent was added to each well containing cells, and a 30 minute incubation at room temperature followed this addition of IgG detection reagent. After completion of the 30 minute room temperature incubation, the cells were then washed two times with DELFIA® wash buffer. Next, 50 μl of DELFIA® Enhancement Solution (Cat #1244-105, Perkin-Elmer, Waltham, MA) was added to each well containing cells for a final 15 minute room temperature incubation with shaking. The plates were then read (TRF, excitation 330 nm, emission 620 nm) on a SPECTRAMAX® (Molecular Devices, Sunnyvale, CA) plate reader.

B1: Ab22 (antibody, human IgG1, kappa, N297A, V domains shown)
VH: QEQLVESGGGLVQPEGSLTLTCTASGFDFSSNAMCWVRQAPGKGLEWIGSIYNADGKNYYAIWAKGRFTISRTSSTTVTLQMTSLTAADTATYFCARDFDLWGQGTLVTVSS
VL: AAVLTQTPSPVSAAVGGTVTINCQSSQSVYDNDWLAWFQQKPGQPPKLLIYLTSTLASGVPSRFSGSGSGTQFTLTISGVQCDDAATYYCLGGYDEDGDTHVFGGGTEVVVKR
notes: Full-length anti-PACAP antibody; rabbit/human chimeric
Consider B1, for which the binding result in experiment [1] was “no binding”; in experiment [2] it was “no binding (tested: about 70 nM)”.
